Assay [1] has as its target HLA-B*18:01. The assay is described as follows: IEDB peptide-MHC binding, purified MHC/competitive/fluorescence; filed as Kd, often an IC50 or EC50 that approximates it; ≥ and ≤ were set here for values at or beyond the usual limits of such assays. The conditions noted are these: source organism: Human herpesvirus 4 strain B95-8.
The target of the next assay is HLA-B*53:01. The assay is described as follows: IEDB peptide-MHC binding, purified MHC/competitive/fluorescence; ≥ and ≤ were set here for values at or beyond the usual limits of such assays. The conditions noted are these: source organism: human gammaherpesvirus 4.
The next assay addresses HLA-A*02:03. The assay is described as follows: IEDB peptide-MHC binding, purified MHC/competitive/fluorescence; filed as Kd, often an IC50 or EC50 that approximates it; ≥ and ≤ were set here for values at or beyond the usual limits of such assays. As to conditions: source organism: Influenza A virus (A/Fort Monmouth/1/1947-mouse adapted(H1N1)).
Another assay addresses HLA-B*48:01. The assay is described as follows: IEDB peptide-MHC binding, purified MHC/direct/fluorescence; filed as Kd, often an IC50 or EC50 that approximates it; ≥ and ≤ were set here for values at or beyond the usual limits of such assays.
The next assay deals with HLA-B*15:01. The assay is described as above.
A further assay has as its target HLA-B*15:17. The description is as above.
The next assay deals with HLA-B*58:01. Described as above.
The target of a further assay is HLA-B*46:01. Described as above.
For a further assay, the target named is HLA-A*01:01. The assay is described as above.
For a further assay, the target named is HLA-B*57:01. Described as above.
The next assay deals with HLA-C*05:01. Described as above. The conditions noted are these: source organism: Influenza A virus (A/Fort Monmouth/1/1947-mouse adapted(H1N1)).
The target in another assay is HLA-B*27:05. The description is as above.
A further assay concerns the target HLA-A*80:01. Described as above. The conditions noted are these: source organism: Influenza A virus (A/whooper swan/Mongolia/6/05(H5N1)).
The target in another assay is HLA-A*26:01. The assay is described as above. The conditions noted are these: source organism: Influenza A virus(A/swine/Shandong/fZC/2003(H9N2)).
Another assay deals with HLA-A*11:01. The description is as above.
Another assay addresses HLA-A*31:01. Described as above.
The target of the next assay is HLA-B*40:01. Described as above.
Assay [2] addresses HLA-B*18:01. The assay is described as above.
The target in assay [3] is HLA-A*69:01. Described as above. As to conditions: source organism: Influenza A virus (A/whooper swan/Mongolia/6/05(H5N1)).
Another assay concerns the target HLA-A*03:01. The assay is described as above. As to conditions: source organism: Influenza A virus (A/whooper swan/Mongolia/6/05(H5N1)).
Another assay addresses HLA-A*68:02. The experiment in a line: IEDB peptide-MHC binding, purified MHC/competitive/fluorescence; filed as Kd, often an IC50 or EC50 that approximates it; ≥ and ≤ were set here for values at or beyond the usual limits of such assays. As to conditions: source organism: Mycobacterium tuberculosis variant bovis BCG str. Pasteur 1173P2.
A further assay deals with HLA-A*26:03. Described as above. As to conditions: source organism: Mycobacterium tuberculosis variant bovis BCG str. Pasteur 1173P2.
For assay [4], the target named is HLA-A*69:01. The description is as above. As to conditions: source organism: Mycobacterium tuberculosis variant bovis BCG str. Pasteur 1173P2.
The target in another assay is HLA-A*26:02. The description is as above. As to conditions: source organism: Mycobacterium tuberculosis variant bovis BCG str. Pasteur 1173P2.
For the next assay, the target named is HLA-A*02:01. The experiment in a line: IEDB peptide-MHC binding, purified MHC/direct/fluorescence; filed as Kd, often an IC50 or EC50 that approximates it; ≥ and ≤ were set here for values at or beyond the usual limits of such assays. The conditions noted are these: source organism: Mycobacterium tuberculosis.
For the next assay, the target named is HLA-B*07:02. The assay is described as above. As to conditions: source organism: Mycobacterium tuberculosis.
Where [5] appears, read: source organism: Influenza A virus (A/whooper swan/Mongolia/6/05(H5N1)).
The mark [6] stands for this setting: source organism: Mycobacterium tuberculosis.

Broadly, the Kd is a measure of binding affinity in units of concentration. For orientation: IC50 means the concentration at which inhibition is half-maximal. On to LASAMRMLW, for which the Kd in the assay with HLA-B*18:01 [1] was determined as 2.27 µM. The same sequence displayed an IC50 with HLA-B*53:01 of 0.0783 µM.

Take SSDDFALIV: the Kd with HLA-A*02:03 is not below 20 µM; with HLA-B*48:01 (setting [5]), not below 20 µM; in the assay with HLA-B*15:01 (setting [5]) it was not below 20 µM; with HLA-B*15:17 (setting [5]), 0.229 µM; in the assay with HLA-B*58:01 (setting [5]) it was not below 20 µM; with HLA-B*46:01 (setting [5]), not below 20 µM. Further, the Kd with HLA-A*01:01 (setting [5]) was 0.113 µM; with HLA-B*57:01 (setting [5]), not below 20 µM; with HLA-C*05:01, 0.016 µM; in the assay with HLA-B*27:05 (setting [5]), not below 20 µM; with HLA-A*80:01, 0.224 µM; with HLA-A*26:01, not below 20 µM. Moreover, the Kd in the assay with HLA-A*11:01 (setting [5]) is not below 20 µM; with HLA-A*31:01 (setting [5]) it was not below 20 µM; with HLA-B*40:01 (setting [5]), not below 20 µM; in the assay with HLA-B*18:01 [2] (setting [5]), not below 20 µM; with HLA-A*69:01 [3], 0.0188 µM; with HLA-A*03:01, not below 20 µM.

With QVFKGVVIR, the Kd with HLA-A*68:02 is 1.77 µM; with HLA-A*26:03, not below 20 µM; with HLA-A*69:01 [4] it was not below 20 µM; in the assay with HLA-A*26:02 it was not below 20 µM; in the assay with HLA-B*48:01 (setting [6]), not below 20 µM; with HLA-B*15:01 (setting [6]), not below 20 µM. In addition, the Kd with HLA-B*15:17 (setting [6]), with HLA-B*58:01 (source organism: Mycobacterium tuberculosis str. Haarlem), with HLA-B*46:01 (setting [6]), in the assay with HLA-A*01:01 (setting [6]), with HLA-B*57:01 (setting [6]) and with HLA-A*02:01 was not below 20 µM each time. For the same sequence, the Kd with HLA-B*27:05 (setting [6]) is not below 20 µM; in the assay with HLA-A*11:01 (setting [6]) it was 0.694 µM; in the assay with HLA-A*31:01 (setting [6]), 0.101 µM; with HLA-B*40:01 (setting [6]), not below 20 µM; with HLA-B*18:01 [2] (setting [6]), not below 20 µM; with HLA-B*07:02, not below 20 µM.

These data come from the Immune Epitope Database (IEDB).
